Reference: US20260274983A1 (MODERNATX, published 2026)
Blank lines part the entries; values can stand above or below the binder they belong to.

What was measured:
human GPRC5D [1] = biological target: T1, human GPRC5D (human, UniProt Q9NZD1 1-345); assay: FACS on H929 cells, VHH-His
T1 construct: whole, on cells; Human is stated only for CHO-HuGPRC5D; also called HuGPRC5D; GPRC5D on CHO-HuGPRC5D cells

human GPRC5D [2] = biological target: T1, human GPRC5D; assay: FACS on CHO-HuGPRC5D cells, VHH-His
human BCMA [3] = biological target: T2, human BCMA (human, UniProt Q02223 1-184); assay: FACS on H929 cells, Fc formatted
T2 construct: whole, on cells; Human is stated only for CHO-HuBCMA; also called HuBCMA; B-cell maturation antigen
T2 sequence (looked up): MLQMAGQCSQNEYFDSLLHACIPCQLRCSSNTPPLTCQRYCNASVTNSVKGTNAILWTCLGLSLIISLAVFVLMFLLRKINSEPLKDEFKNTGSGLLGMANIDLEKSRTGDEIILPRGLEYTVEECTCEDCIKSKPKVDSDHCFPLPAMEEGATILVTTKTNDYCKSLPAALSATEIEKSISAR

CD38 [4] = biological target: T3, CD38 (UniProt P28907 1-300, limits assumed); assay: FACS on H929 cells, VHH-His
T3 construct: whole, on cells; also called CD38 on RPMI8226 cells; CD38 on H929 cells
T3 sequence (looked up): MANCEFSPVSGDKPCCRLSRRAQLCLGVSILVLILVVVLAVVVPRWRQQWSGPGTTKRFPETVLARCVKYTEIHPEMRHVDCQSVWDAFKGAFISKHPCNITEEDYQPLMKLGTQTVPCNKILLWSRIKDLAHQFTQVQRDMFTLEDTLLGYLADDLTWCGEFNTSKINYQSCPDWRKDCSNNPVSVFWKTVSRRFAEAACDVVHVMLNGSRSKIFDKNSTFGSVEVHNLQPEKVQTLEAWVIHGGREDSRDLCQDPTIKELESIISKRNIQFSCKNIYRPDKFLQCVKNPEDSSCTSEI

CD38 [5] = biological target: T3, CD38; assay: FACS on RPMI8226 cells, VHH-His
human BCMA [6] = biological target: T2, human BCMA; assay: FACS on CHO-HuBCMA cells, Fc formatted
human GPRC5D [7] = biological target: T1, human GPRC5D; assay: FACS on CHO-HuGPRC5D cells

T1 sequence (Q9NZD1 whole entry): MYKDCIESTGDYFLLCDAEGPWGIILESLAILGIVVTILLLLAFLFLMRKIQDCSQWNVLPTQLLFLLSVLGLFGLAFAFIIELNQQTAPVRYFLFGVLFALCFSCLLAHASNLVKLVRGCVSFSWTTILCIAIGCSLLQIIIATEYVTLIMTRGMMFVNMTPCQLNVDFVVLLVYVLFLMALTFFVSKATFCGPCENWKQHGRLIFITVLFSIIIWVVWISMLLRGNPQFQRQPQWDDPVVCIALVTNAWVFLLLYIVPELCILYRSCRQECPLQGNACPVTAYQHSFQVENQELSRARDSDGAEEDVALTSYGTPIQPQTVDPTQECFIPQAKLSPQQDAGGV

B2: BCMA-VHH17 (Fc fusion)
chain: QVQLVESGGGLVQAGGSLRLSCAASGRTFSGYTMAWFRQAPGSEREFVAAAVGSDGSTYYVDSVKGRFTMSRDSAKNTVYLMMTSLQPVDSAVYFCVKLDSGAWSLAEWGQGTQVTVSS
notes: not shown: Fc of the Fc formatted construct
EC50 (human BCMA [3]): 1.01 nM

B3: BCMA-VHH9 (Fc fusion)
chain: QVKLEESGGGFVQPGGSLRLSCAASGFTYSSYWMHWVRQAPGKGLEWVSGISTGGDTTDTYYADSVKGRFTISRDNAKNTLYLQMNSLKPEDTAVYYCVALNLWGTDLEHDYWGRGTQVTVSS
notes: as for B2
EC50 (human BCMA [3]): 43.4 nM

B4: BCMA-VHH20 (Fc fusion)
chain: QVQLVESGGGLVQPGGSLRLSCAASGFTFSNYAMIWVRQAPGKGLEWVSSINANSDTTAYSDSVKGRFAISRDNARNTLYLQMNSLKPEDTAVYFCVSDSYIGGLYATYVYWGQGTQVTVSS
notes: as for B2
EC50 (human BCMA [3]): 83.4 nM

B7: BCMA-VHH7 (Fc fusion)
chain: EVQLVDSGGGLVQAGGSLRLSCAASGSTFSRYAMGWIRQAPGKEREFVAAISWSGGSTYYADSVKGRFTISRDVAKNTVSLQMNSLKPEDAGVYFCFGDIIRSGERSDYEYWGQGTRVTVTS
notes: as for B2
EC50 (human BCMA [3]): 268 nM

B10: BCMA-VHH18 (Fc fusion)
chain: PVQLVESGGGLVQAGGSLRLSCAASGRTFSSYAMGWFRQAPGKEREFVAGVSWTGDNTGYADSVKGRFTISRDNFKSTVYLEMNSLKPEDTAVYFCAAWNWGHHEYTYWGRGTQVTVSS
notes: as for B2
EC50 (human BCMA [6]): 1020 nM

B11: BCMA-VHH3 (Fc fusion)
chain: QVQLVESGGGLVQAGGSLRLSCAASGSIFAYHVMGWYRQAPGKQRELVALITSGGSTNYTDSVKGRFTISRDNAKNTVYLQMNSLKPEDTAVYYCAIGYYSGSYYWERSGDYWGQGTQVTVSS
notes: as for B2
EC50 (human BCMA [3]): 11 nM

B13: BCMA-VHH8 (Fc fusion)
chain: QVQLVQSGGGLVLPGGSLRLSCAASGFTLSSYWMHWLRQAPGKGLEWVSAIKPESGITYYAESMKGRFTISRDNAKNTLYLQMNSLKSEDSALYYCVREDYDSAYVGDYWGKGTQVTVSS
notes: as for B2
EC50 (human BCMA [6]): 170 nM

B14: BCMA-VHH16 (Fc fusion)
chain: QVKLEESGGGLVQAGGSLRLSCAASGHTFSNSAMGWIRQAPGKEREFVAAISLNGGNTHYAESVKGRFAISRDNAKNTMYLQMNSLKPEDTAVYYCATLGFASWGQGTQVTVSS
notes: as for B2
EC50 (human BCMA [3]): 41.8 nM

B17: BCMA-VHH13 (Fc fusion)
chain: QVQLVDSGGRLVQAGDSLRLSCSASGFTFGSYWMFWVRQAPGKGLEWVSAIDTSGGHVYYGDSVNGRFTISRDNAKNTLYLQMNSLKPEDTALYYCARVENTWESIYWGQGTTVTVSS
notes: as for B2
EC50 (human BCMA [3]): 15.5 nM

B18: BCMA-VHH1 (Fc fusion)
chain: AVQLVDSGGGLVTAGDSLTLSCVASGRTLSPYTAGWFRQAPGREREFVALITARGDWTSYSDSVKGRFTISRDNAKNTIYLQMNSLEPEDTALYYCVRDLLGRDDYWGQGTQVTVSS
notes: as for B2
EC50 (human BCMA [3]): 78 nM

B21: CD38-VHH1 (VHH)
VHH: QVQLVESGGGLVQPGDSLRLSCAASGFILDTYSVAWFRQAPGKEREGVSCISSRDGNTFYSDSVKGRFTISRDNAKNTVYLQMNSLKSEDTAVYTCAAGAQAHCTIFTSYFNSDYYRRYNYWGQGTQVTVSS
EC50 (CD38 [4]): 4.43 nM
EC50 (CD38 [5]): < 1 nM

B22: BCMA-VHH11 (Fc fusion)
chain: QVQLVDSGGGLVQPGGSLRLSCAASGFTFSSYWMYWVRQAPGKGLEWVSAINTDGDSTYYADSVKGRFTVSRDVAGNMIYLQMTNLKPEDTAVYTCAAIVTRSDGHQYDYWGRGTQVTVSV
notes: as for B2
EC50 (human BCMA [3]): 45.9 nM

B23: BCMA-VHH2 (Fc fusion)
chain: HVQLVESGGGLVQTGGSLRLSCAASGRTLNNYVVAWFRQAPGKEREFVATMWWSGGSPWYSDNVKGRFTISRDNAKNTLYLQMNSLRPEDTAVYYCAATWVGTSEYRHWGQGTQVTVSS
notes: as for B2
EC50 (human BCMA [6]): 0.8 nM

B24: BCMA-VHH4 (Fc fusion)
chain: QVKLEESGGGLVQTGGSLRLSCAASGRTLNNYVVAWFRQAPGKEREFVATMWWSGGSPWYSDNVKGRFTISRDNAKNTLYLQMNSLRPEDTAVYYCAATWVGTSEYQHWGQGTQVTVSS
notes: as for B2
EC50 (human BCMA [6]): 0.57 nM

B25: GPRC5D-VHH1 (VHH)
VHH: SVQLVESEGGLVQAGGSLRLSCVASGRTVSSYAMGWFRQAPGKEREFVAAISWSGRSTYYADSMKGRFTISRDNAKNTVYLQMNNLRPEDTAVYYCATSRAVIPGRDWNYYEYSGQGTQVTVSS
EC50 (human GPRC5D [1]): 13.2 nM
EC50 (human GPRC5D [2]): 2.52 nM

B27: BCMA-VHH15 (Fc fusion)
chain: QVQLVESGGGLVQPGGSLRLSCAASGFTFSTYSMYWVRQAPGKGLEWVSAIDARGVNTYYADSVRGRFTVSRDNAKNTLYLQMNNLKLEDTALYYCGGWEFATWGRGTQVTVSS
notes: as for B2
EC50 (human BCMA [6]): 1.76 nM

Continued, values first:

EC50 (human GPRC5D [1]): 1.65 nM
EC50 (human GPRC5D [2]): 4.23 nM
B1: GPRC5D-VHH3 (VHH)
VHH: QVKLVESGGGLVQPGGSLRLSCVGSGIIFSASNLAWYRQALGKQRELVAGVTGGGSINYADSVKGRFTISRDNAKNTIYLQMNSLKPEDTAVYYCNARRSYSHWGQGTRVTVSS

EC50 (CD38 [4]): 25.7 nM
EC50 (CD38 [5]): 10.5 nM
B5: CD38-VHH12 (VHH)
VHH: QVQLVESGGGLVQAGGSLRLSCVASGIIFRIFSMGWYRQAPGKQRELVATITSGGNTNYAHSVKGRFTISRDDAKNTVNLQMNSLKPEDTAVYYCNVAIPSGIVDRSAWGQGTQVTVSS

EC50 (CD38 [4]): 101 nM
EC50 (CD38 [5]): 28.4 nM
B6: CD38-VHH6 (VHH)
VHH: QVQLVESGGGLVQAGGSLRLSCAASGTFSSINLMGYYRQAPGKQREFVARDYTEGTTDYADSVKGRFTISRDNTKKTVFLQMNNLKPEDTAIYYCWLMVRAGDVYWGQGTQVTVSS

EC50 (CD38 [4]): 2.06 nM
EC50 (CD38 [5]): 0.45 nM
B8: CD38-VHH8 (VHH)
VHH: QVQLVESGGGLVQAGGSLRLSCAASGSSVSMNSMAWYRQAPGKQRELVALITPGDRINYADFVKGRFTISRDNAKNTVNLQMNNLKPEDTAVYYCNIGATRPPFGAWGQGTQVTVSS

EC50 (CD38 [4]): 3.55 nM
EC50 (CD38 [5]): 1.91 nM
B9: CD38-VHH7 (VHH)
VHH: QVQLVESGGGLVHTGGSLRLSCAASGSISGLNTMGWYRQAPGKQRELVATIISGTMTRYADSVKGRFTISKDNAKNTVYLQMNSLKPEDTAVYYCTFKEITRDSRSYWGQGTQVTVSS

EC50 (CD38 [4]): 6.14 nM
EC50 (CD38 [5]): 1.01 nM
B12: CD38-VHH2 (VHH)
VHH: QVQLVESGGGLVQPGGSLRLSCAASGFIFSDKVMSWVRQAPGKGREWVSTITPGGTATSYTESVKGRFTISRDNAKNTLYLQMNNLKPDDTALYYCRIGGPGGRYDNWGQGTQVTVSS

EC50 (CD38 [5]): 71.3 nM
B15: CD38-VHH5 (VHH)
VHH: QVQLVESGGGLVQTGGSLRLSCVASGAIVSAESMGWYRQAPGNQRELVAEIISGSKSNYGESVKGRFTISRDNAENTVYLQMNSVKPEDTAVYYCKRTERIWTNNPQVYWGQGTQVTVSS

EC50 (human GPRC5D [1]): 0.23 nM
EC50 (human GPRC5D [2]): 0.68 nM
B16: GPRC5D-VHH2 (VHH)
VHH: QVQLVESGGGLVQAGGSLRLSCAASGRTASAYVMGWFRQAPGKERDFVAGISGGAYYADSVKGRFTIARDNAKNTVYLQMNSLKPEDTAVYYCAAERGMRRLTESYQYDYWGQGTQVTVSS

EC50 (CD38 [4]): 1.36 nM
EC50 (CD38 [5]): 0.35 nM
B19: CD38-VHH3 (VHH)
VHH: QVQLVESGGGLVQAGGSLTLSCAASRSIFEINTMTMGWYRQAPGKQRELIAASRGATTNYADSVKGRFTISRDNAKNTVYLQMNSLKPEDTAVYYCSADRYGFGYGDNDYWGQGTQVTVSS

EC50 (CD38 [4]): 2.62 nM
EC50 (CD38 [5]): 0.51 nM
B20: CD38-VHH9 (VHH)
VHH: QVQLVESGGGLVQAGGSLRLSCVASGFIYSISTMGWYRQAPGKQRELVATITSGGNTNYADSVKGRFTISRDNAQNTVYLQMNNLKPEDTAIYYCNTAWRETIVSRVWGQGTQVTVSS

EC50 (human GPRC5D [7]): 4.44 nM
B26: GPRC5D-VHH1-H7 (VHH)
VHH: QVQLVESGGGLVQPGGSLRLSCAASGRTVSSYAMGWFRQAPGKEREFVSAISWSGRSTYYADSMKGRFTISRDNAKNTLYLQMNSLRAEDTAVYYCATSRAVIPGRDWNYYEYWGQGTLVTVSS
notes: Humanized variant of GPRC5D-VHH1
